Data published in PMC8273347.

Columns and labels:
[1] = biological target: 30S pre-initiation complex (30S subunit, IF3_(488), IF2, mRNA, GTP) (UniProt P0A707); assay: FRET or BRET; stopped-flow chase: 0.05 µM 30S complex with IF3_(488) (donor) and IF1_(540Q) (acceptor) mixed with 10-fold excess (0.5 µM) unlabelled IF1, donor fluorescence in time, single exponential fit; TAKM7 buffer (25 mM Tris-HCl pH 7.4, 70 mM NH4Ac, 30 mM KCl, 7 mM MgCl2); no tetracycline
[2] = biological target: 30S initiation complex (30S subunit, IF3_(488), IF2, mRNA, GTP, fMet-tRNA^fMet) (UniProt P0A707); assay: as above
[3] = biological target: 30S–IF3_(488) complex (30S ribosomal subunit with bound Alexa-488-labelled IF3) (UniProt P0A707); assay: as above
[4] = biological target: 30S pre-initiation complex (30S subunit, IF3_(488), IF2, mRNA, GTP) (UniProt P0A707); assay: FRET or BRET; stopped-flow chase as a1 (0.05 µM complex, 0.5 µM unlabelled IF1, TAKM7 buffer), with 100 µM Demeclocycline (Dem)
[5] = biological target: 30S initiation complex (30S subunit, IF3_(488), IF2, mRNA, GTP, fMet-tRNA^fMet) (UniProt P0A707); assay: as above
[6] = biological target: 30S–IF3_(488) complex (30S ribosomal subunit with bound Alexa-488-labelled IF3) (UniProt P0A707); assay: as above
[7] = biological target: 30S initiation complex (30S subunit, IF3_(488), IF2, mRNA, GTP, fMet-tRNA^fMet) (UniProt P0A707); assay: FRET or BRET; stopped-flow chase as a1 (0.05 µM complex, 0.5 µM unlabelled IF1, TAKM7 buffer), with 100 µM Oxytetracycline (Otc)
[8] = biological target: 30S pre-initiation complex (30S subunit, IF3_(488), IF2, mRNA, GTP) (UniProt P0A707); assay: as above
[9] = biological target: 30S initiation complex (30S subunit, IF3_(488), IF2, mRNA, GTP, fMet-tRNA^fMet) (UniProt P0A707); assay: as above; remark: listed apart in the source
[10] = biological target: 30S–IF3_(488) complex (30S ribosomal subunit with bound Alexa-488-labelled IF3) (UniProt P0A707); assay: as above
[11] = biological target: 30S pre-initiation complex (30S subunit, IF3_(488), IF2, mRNA, GTP) (UniProt P0A707); assay: FRET or BRET; stopped-flow chase as a1 (0.05 µM complex, 0.5 µM unlabelled IF1, TAKM7 buffer), with 100 µM Tigecycline (Tig)
[12] = biological target: 30S initiation complex (30S subunit, IF3_(488), IF2, mRNA, GTP, fMet-tRNA^fMet) (UniProt P0A707); assay: as above
[13] = biological target: 30S–IF3_(488) complex (30S ribosomal subunit with bound Alexa-488-labelled IF3) (UniProt P0A707); assay: as above

IF1 D4C labelled with Atto-540Q (natural protein)
koff [1]: 0.03 s⁻¹
koff [2]: 0.02 s⁻¹
koff [3]: 0.3 s⁻¹
koff [4]: 0.02 s⁻¹
koff [5]: 0.012 s⁻¹
koff [6]: 0.2 s⁻¹
koff [7]: 0.3 s⁻¹
koff [8]: 0.02 s⁻¹
koff [9]: 0.03 s⁻¹
koff [10]: 0.26 s⁻¹
koff [11]: 0.015 s⁻¹
koff [12]: 0.015 s⁻¹
koff [13]: 0.021 s⁻¹
